Test results as given in PMC9620997 (Gut Microbes, 2022).

Molecular target: T1, 6xHis-tagged TssI2 (purified) (Vibrio fluvialis 85003, UniProt A0A1W6EUI3 1-1012)
T1 sequence: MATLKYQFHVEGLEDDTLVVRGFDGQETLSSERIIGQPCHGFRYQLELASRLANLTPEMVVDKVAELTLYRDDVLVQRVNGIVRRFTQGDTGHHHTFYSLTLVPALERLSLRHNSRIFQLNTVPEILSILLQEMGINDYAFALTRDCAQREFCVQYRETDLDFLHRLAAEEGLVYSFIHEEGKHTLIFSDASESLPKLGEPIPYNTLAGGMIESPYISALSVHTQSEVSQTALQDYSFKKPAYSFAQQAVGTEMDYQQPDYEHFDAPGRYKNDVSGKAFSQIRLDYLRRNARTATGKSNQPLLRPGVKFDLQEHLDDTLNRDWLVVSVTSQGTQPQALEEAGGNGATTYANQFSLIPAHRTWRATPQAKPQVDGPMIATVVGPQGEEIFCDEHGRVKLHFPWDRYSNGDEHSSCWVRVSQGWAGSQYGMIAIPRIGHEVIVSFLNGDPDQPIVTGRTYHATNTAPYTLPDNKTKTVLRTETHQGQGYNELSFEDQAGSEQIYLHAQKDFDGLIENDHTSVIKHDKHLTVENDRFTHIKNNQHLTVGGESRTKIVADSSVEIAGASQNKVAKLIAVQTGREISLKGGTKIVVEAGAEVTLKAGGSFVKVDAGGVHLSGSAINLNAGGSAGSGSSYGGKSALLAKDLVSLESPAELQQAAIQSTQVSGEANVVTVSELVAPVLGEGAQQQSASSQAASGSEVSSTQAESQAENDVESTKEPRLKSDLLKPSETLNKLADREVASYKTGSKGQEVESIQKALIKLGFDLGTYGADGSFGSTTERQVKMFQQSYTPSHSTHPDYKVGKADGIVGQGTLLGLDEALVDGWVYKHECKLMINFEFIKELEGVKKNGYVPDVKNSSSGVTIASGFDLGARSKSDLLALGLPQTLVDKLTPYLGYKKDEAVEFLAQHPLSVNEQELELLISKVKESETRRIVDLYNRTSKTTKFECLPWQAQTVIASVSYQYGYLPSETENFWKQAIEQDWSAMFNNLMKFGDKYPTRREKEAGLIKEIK
Experiment: ITC

B1: 6xHis-tagged TsiI2^19-127 (purified) (domain or fragment)
chain: FPTNEVYAYLDITSFNSSLIQKAARGQKHFSDLKIPNPVISKDTILIESEYWKYEMQFVKEDDSGIHVCFVDKAKWGTYDTQTPMIIRKYADEYVAIKMNSDVCEDFAK
Kd: 1.07 nM
